Patent US20240299510A1

What was measured:
HIT01-Combo3 = assay: BLI (Octet); antibody IgG 50 ug/ml on AHC sensor, immunogen from 500 nM in 2x dilutions
HIT01-K21Q-R218E [1] = assay: as above
HIT01-K21Q-R218E [2] = assay: BLI (Octet) blocking; HIT01-K21Q-R218E on Ni-NTA sensor, 50 ug/ml AMG145 for 300 s, then NHP serum (competitor) at 200-fold dilution
human PCSK9 (human) = human PCSK9 (human) (UniProt Q8NBP7); assay: BLI (Octet) blocking; wt PCSK9 on Ni-NTA sensor, 50 ug/ml AMG145 for 300 s, then NHP serum (competitor) at 200-fold dilution

Work on AMG145 (antibody) yielded a Kd (HIT01-Combo3) of 0.005 nM, a Kd (HIT01-K21Q-R218E [1]) of less than 0.001 nM and a reduction of serum response when the probe is blocked (HIT01-K21Q-R218E [2]) of 50%. It also gave a reduction of serum response when the probe is blocked (human PCSK9 (human)) of 50%.

Work on Alirocumab (antibody) yielded a Kd (HIT01-Combo3) of 112 nM and a Kd (HIT01-K21Q-R218E [1]) of 58 nM.
